Drawing on the Human Domainome abundance scans (Beltran et al. 2025), this text covers abundance fitness for 55 variants.

± gives the uncertainty stated by the source.

B1: Gamma-crystallin S, residues 96 to 176; numbered along this chain, P22914 (parent)
chain: IQIFEKGDFSGQMYETTEDCPSIMEQFHMREIHSCKVLEGVWIFYELPNYRGRQYLLDKKEYRKPIDWGAASPAVQSFRRI

This series covers variants of B1. Briefly: abundance fitness (aPCA) (normalised: wild type 0, dead -1); higher = more abundant; growth selection in yeast, the domain comes from the species named. The following applies: Homo sapiens.
For the variant WQIFEKGDFSGQMYETTEDCPSIMEQFHMREIHSCKVLEGVWIFYELPNYRGRQYLLDKKEYRKPIDWGAASPAVQSFRRI [I1W], the abundance fitness was -1.16 ± 0.44.

As to RQIFEKGDFSGQMYETTEDCPSIMEQFHMREIHSCKVLEGVWIFYELPNYRGRQYLLDKKEYRKPIDWGAASPAVQSFRRI [I1R], the abundance fitness was -1.07 ± 0.23.

Regarding LQIFEKGDFSGQMYETTEDCPSIMEQFHMREIHSCKVLEGVWIFYELPNYRGRQYLLDKKEYRKPIDWGAASPAVQSFRRI [I1L], the abundance fitness was -0.154 ± 0.084.

On to AQIFEKGDFSGQMYETTEDCPSIMEQFHMREIHSCKVLEGVWIFYELPNYRGRQYLLDKKEYRKPIDWGAASPAVQSFRRI [I1A], for which the abundance fitness was -0.239 ± 0.051.

Regarding VQIFEKGDFSGQMYETTEDCPSIMEQFHMREIHSCKVLEGVWIFYELPNYRGRQYLLDKKEYRKPIDWGAASPAVQSFRRI [I1V], the abundance fitness stood at 0.05 ± 0.073.

Take GQIFEKGDFSGQMYETTEDCPSIMEQFHMREIHSCKVLEGVWIFYELPNYRGRQYLLDKKEYRKPIDWGAASPAVQSFRRI [I1G]: the abundance fitness was -1.18 ± 0.16.

In the case of KQIFEKGDFSGQMYETTEDCPSIMEQFHMREIHSCKVLEGVWIFYELPNYRGRQYLLDKKEYRKPIDWGAASPAVQSFRRI [I1K], the abundance fitness was -0.732 ± 0.35.

Take HQIFEKGDFSGQMYETTEDCPSIMEQFHMREIHSCKVLEGVWIFYELPNYRGRQYLLDKKEYRKPIDWGAASPAVQSFRRI [I1H]: the abundance fitness came to 0.005 ± 0.46.

As to CQIFEKGDFSGQMYETTEDCPSIMEQFHMREIHSCKVLEGVWIFYELPNYRGRQYLLDKKEYRKPIDWGAASPAVQSFRRI [I1C], the abundance fitness amounted to 0.104 ± 0.11.

As for FQIFEKGDFSGQMYETTEDCPSIMEQFHMREIHSCKVLEGVWIFYELPNYRGRQYLLDKKEYRKPIDWGAASPAVQSFRRI [I1F], the abundance fitness came out at 0.011 ± 0.091.

As for NQIFEKGDFSGQMYETTEDCPSIMEQFHMREIHSCKVLEGVWIFYELPNYRGRQYLLDKKEYRKPIDWGAASPAVQSFRRI [I1N], the abundance fitness is -0.968 ± 0.37.

As for IQIIEKGDFSGQMYETTEDCPSIMEQFHMREIHSCKVLEGVWIFYELPNYRGRQYLLDKKEYRKPIDWGAASPAVQSFRRI [F4I], the abundance fitness was -0.987 ± 0.14.

In the case of IQIGEKGDFSGQMYETTEDCPSIMEQFHMREIHSCKVLEGVWIFYELPNYRGRQYLLDKKEYRKPIDWGAASPAVQSFRRI [F4G], the abundance fitness was -0.414 ± 0.042.

As to IQICEKGDFSGQMYETTEDCPSIMEQFHMREIHSCKVLEGVWIFYELPNYRGRQYLLDKKEYRKPIDWGAASPAVQSFRRI [F4C], the abundance fitness was -0.008 ± 0.079.

Take IQIDEKGDFSGQMYETTEDCPSIMEQFHMREIHSCKVLEGVWIFYELPNYRGRQYLLDKKEYRKPIDWGAASPAVQSFRRI [F4D]: the abundance fitness was -0.971 ± 0.2.

Regarding IQIHEKGDFSGQMYETTEDCPSIMEQFHMREIHSCKVLEGVWIFYELPNYRGRQYLLDKKEYRKPIDWGAASPAVQSFRRI [F4H], the abundance fitness is -0.017 ± 0.095.

For IQIAEKGDFSGQMYETTEDCPSIMEQFHMREIHSCKVLEGVWIFYELPNYRGRQYLLDKKEYRKPIDWGAASPAVQSFRRI [F4A], the abundance fitness is -0.275 ± 0.05.

For IQIKEKGDFSGQMYETTEDCPSIMEQFHMREIHSCKVLEGVWIFYELPNYRGRQYLLDKKEYRKPIDWGAASPAVQSFRRI [F4K], the abundance fitness was -0.193 ± 0.19.

IQIEEKGDFSGQMYETTEDCPSIMEQFHMREIHSCKVLEGVWIFYELPNYRGRQYLLDKKEYRKPIDWGAASPAVQSFRRI [F4E]: the abundance fitness was -1.16 ± 0.23.

IQIMEKGDFSGQMYETTEDCPSIMEQFHMREIHSCKVLEGVWIFYELPNYRGRQYLLDKKEYRKPIDWGAASPAVQSFRRI [F4M]: the abundance fitness was -0.045 ± 0.064.

As for IQTFEKGDFSGQMYETTEDCPSIMEQFHMREIHSCKVLEGVWIFYELPNYRGRQYLLDKKEYRKPIDWGAASPAVQSFRRI [I3T], the abundance fitness was -0.185 ± 0.053.

For the variant IQGFEKGDFSGQMYETTEDCPSIMEQFHMREIHSCKVLEGVWIFYELPNYRGRQYLLDKKEYRKPIDWGAASPAVQSFRRI [I3G], the abundance fitness was -0.716 ± 0.067.

In the case of IQKFEKGDFSGQMYETTEDCPSIMEQFHMREIHSCKVLEGVWIFYELPNYRGRQYLLDKKEYRKPIDWGAASPAVQSFRRI [I3K], the abundance fitness was -1.12 ± 0.24.

Consider IQMFEKGDFSGQMYETTEDCPSIMEQFHMREIHSCKVLEGVWIFYELPNYRGRQYLLDKKEYRKPIDWGAASPAVQSFRRI [I3M], for which the abundance fitness is -0.018 ± 0.072.

For the variant IQEFEKGDFSGQMYETTEDCPSIMEQFHMREIHSCKVLEGVWIFYELPNYRGRQYLLDKKEYRKPIDWGAASPAVQSFRRI [I3E], the abundance fitness is -1 ± 0.22.

In the case of IQHFEKGDFSGQMYETTEDCPSIMEQFHMREIHSCKVLEGVWIFYELPNYRGRQYLLDKKEYRKPIDWGAASPAVQSFRRI [I3H], the abundance fitness is -0.777 ± 0.26.

IQAFEKGDFSGQMYETTEDCPSIMEQFHMREIHSCKVLEGVWIFYELPNYRGRQYLLDKKEYRKPIDWGAASPAVQSFRRI [I3A]: the abundance fitness was -0.141 ± 0.061.

In the case of IQCFEKGDFSGQMYETTEDCPSIMEQFHMREIHSCKVLEGVWIFYELPNYRGRQYLLDKKEYRKPIDWGAASPAVQSFRRI [I3C], the abundance fitness was -0.029 ± 0.092.

Consider IQRFEKGDFSGQMYETTEDCPSIMEQFHMREIHSCKVLEGVWIFYELPNYRGRQYLLDKKEYRKPIDWGAASPAVQSFRRI [I3R], for which the abundance fitness is -0.703 ± 0.081.

Turning to IQWFEKGDFSGQMYETTEDCPSIMEQFHMREIHSCKVLEGVWIFYELPNYRGRQYLLDKKEYRKPIDWGAASPAVQSFRRI [I3W], the abundance fitness is -0.047 ± 0.056.

For IQDFEKGDFSGQMYETTEDCPSIMEQFHMREIHSCKVLEGVWIFYELPNYRGRQYLLDKKEYRKPIDWGAASPAVQSFRRI [I3D], the abundance fitness is -0.705 ± 0.38.

IQLFEKGDFSGQMYETTEDCPSIMEQFHMREIHSCKVLEGVWIFYELPNYRGRQYLLDKKEYRKPIDWGAASPAVQSFRRI [I3L]: the abundance fitness is -0.02 ± 0.053.

On to IQYFEKGDFSGQMYETTEDCPSIMEQFHMREIHSCKVLEGVWIFYELPNYRGRQYLLDKKEYRKPIDWGAASPAVQSFRRI [I3Y], for which the abundance fitness was -0.286 ± 0.1.

For the variant IQNFEKGDFSGQMYETTEDCPSIMEQFHMREIHSCKVLEGVWIFYELPNYRGRQYLLDKKEYRKPIDWGAASPAVQSFRRI [I3N], the abundance fitness is -0.627 ± 0.14.

In the case of IQQFEKGDFSGQMYETTEDCPSIMEQFHMREIHSCKVLEGVWIFYELPNYRGRQYLLDKKEYRKPIDWGAASPAVQSFRRI [I3Q], the abundance fitness is -1.08 ± 0.23.

Take IQSFEKGDFSGQMYETTEDCPSIMEQFHMREIHSCKVLEGVWIFYELPNYRGRQYLLDKKEYRKPIDWGAASPAVQSFRRI [I3S]: the abundance fitness is -0.931 ± 0.13.

On to IQPFEKGDFSGQMYETTEDCPSIMEQFHMREIHSCKVLEGVWIFYELPNYRGRQYLLDKKEYRKPIDWGAASPAVQSFRRI [I3P], for which the abundance fitness is -1.2 ± 0.23.

As for IQFFEKGDFSGQMYETTEDCPSIMEQFHMREIHSCKVLEGVWIFYELPNYRGRQYLLDKKEYRKPIDWGAASPAVQSFRRI [I3F], the abundance fitness was determined as 0.031 ± 0.11.

On to IPIFEKGDFSGQMYETTEDCPSIMEQFHMREIHSCKVLEGVWIFYELPNYRGRQYLLDKKEYRKPIDWGAASPAVQSFRRI [Q2P], for which the abundance fitness was -0.876 ± 0.22.

On to ISIFEKGDFSGQMYETTEDCPSIMEQFHMREIHSCKVLEGVWIFYELPNYRGRQYLLDKKEYRKPIDWGAASPAVQSFRRI [Q2S], for which the abundance fitness was found to be 0.039 ± 0.075.

As for IDIFEKGDFSGQMYETTEDCPSIMEQFHMREIHSCKVLEGVWIFYELPNYRGRQYLLDKKEYRKPIDWGAASPAVQSFRRI [Q2D], the abundance fitness is -0.053 ± 0.084.

In the case of IGIFEKGDFSGQMYETTEDCPSIMEQFHMREIHSCKVLEGVWIFYELPNYRGRQYLLDKKEYRKPIDWGAASPAVQSFRRI [Q2G], the abundance fitness was 0.035 ± 0.046.

In the case of IWIFEKGDFSGQMYETTEDCPSIMEQFHMREIHSCKVLEGVWIFYELPNYRGRQYLLDKKEYRKPIDWGAASPAVQSFRRI [Q2W], the abundance fitness is 0.003 ± 0.068.

With ICIFEKGDFSGQMYETTEDCPSIMEQFHMREIHSCKVLEGVWIFYELPNYRGRQYLLDKKEYRKPIDWGAASPAVQSFRRI [Q2C], the abundance fitness amounted to 0.027 ± 0.13.

On to IMIFEKGDFSGQMYETTEDCPSIMEQFHMREIHSCKVLEGVWIFYELPNYRGRQYLLDKKEYRKPIDWGAASPAVQSFRRI [Q2M], for which the abundance fitness is -0.077 ± 0.1.

Consider IFIFEKGDFSGQMYETTEDCPSIMEQFHMREIHSCKVLEGVWIFYELPNYRGRQYLLDKKEYRKPIDWGAASPAVQSFRRI [Q2F], for which the abundance fitness was 0.17 ± 0.16.

As to IRIFEKGDFSGQMYETTEDCPSIMEQFHMREIHSCKVLEGVWIFYELPNYRGRQYLLDKKEYRKPIDWGAASPAVQSFRRI [Q2R], the abundance fitness was found to be 0.027 ± 0.04.

For the variant IIIFEKGDFSGQMYETTEDCPSIMEQFHMREIHSCKVLEGVWIFYELPNYRGRQYLLDKKEYRKPIDWGAASPAVQSFRRI [Q2I], the abundance fitness was found to be 0.221 ± 0.41.

On to INIFEKGDFSGQMYETTEDCPSIMEQFHMREIHSCKVLEGVWIFYELPNYRGRQYLLDKKEYRKPIDWGAASPAVQSFRRI [Q2N], for which the abundance fitness came to 0.124 ± 0.13.

On to IAIFEKGDFSGQMYETTEDCPSIMEQFHMREIHSCKVLEGVWIFYELPNYRGRQYLLDKKEYRKPIDWGAASPAVQSFRRI [Q2A], for which the abundance fitness was -0.075 ± 0.042.

For the variant IHIFEKGDFSGQMYETTEDCPSIMEQFHMREIHSCKVLEGVWIFYELPNYRGRQYLLDKKEYRKPIDWGAASPAVQSFRRI [Q2H], the abundance fitness was 0.088 ± 0.086.

IYIFEKGDFSGQMYETTEDCPSIMEQFHMREIHSCKVLEGVWIFYELPNYRGRQYLLDKKEYRKPIDWGAASPAVQSFRRI [Q2Y]: the abundance fitness is -0.099 ± 0.15.

Turning to IVIFEKGDFSGQMYETTEDCPSIMEQFHMREIHSCKVLEGVWIFYELPNYRGRQYLLDKKEYRKPIDWGAASPAVQSFRRI [Q2V], the abundance fitness was -0.041 ± 0.056.

As for IKIFEKGDFSGQMYETTEDCPSIMEQFHMREIHSCKVLEGVWIFYELPNYRGRQYLLDKKEYRKPIDWGAASPAVQSFRRI [Q2K], the abundance fitness was 0.022 ± 0.085.

Turning to ITIFEKGDFSGQMYETTEDCPSIMEQFHMREIHSCKVLEGVWIFYELPNYRGRQYLLDKKEYRKPIDWGAASPAVQSFRRI [Q2T], the abundance fitness is -0.066 ± 0.087.
